Results published in the supplement of paper PMC9170038.

Test system: MS2 coat protein
Assay: apparent KD of MS2 coat protein; designed switch direction (-1 OFF switch, 1 ON switch): 1; higher = weaker reporter binding
Outline: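 Transcription of designed RNA switches on Illumina chips was done by stalled E. coli RNA polymerase. SNAP-549-labelled MS2 coat protein was then titrated in doubling steps from 0.7 or 1.5 nM to 3 µM, with steps of 0.8–1.5 h at the lowest and 10–20 min at the highest concentration. The per-design median over clusters of curve-fitted normalised fluorescence is reported as apparent KD.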

[1] = input ligand: microRNA oligo, concentration not stated

Sequence: GCGAUAUGAUGUUACAUGAGGAUCACCCAUGUAGCGAUAGCUAAGGAUAUUGGAAAGGGAGGAGACGAGAAGGUAGGAUCACGC [AK SSNG3-V2-23.1] (Eterna round: R96, puzzle: Same State NG 3)
- apparent KD of MS2 coat protein (input ligand: FMN 200 uM): 0.0449 µM
- apparent KD of MS2 coat protein [1]: 0.0157 µM
- apparent KD of MS2 coat protein (input ligand: none): 0.0361 µM

Sequence: GCGCACGAUCACAGUAACAUGAGGAUCACCCAUGUGUUACCGGAGGAUAUGCAAGCCCAUGCAGCGCAGAAGGCCGGGAACGUA [Eternabot solution 24] (Eterna round: R96, puzzle: Same State NG 3)
- apparent KD of MS2 coat protein (input ligand: FMN 200 uM): 0.151 µM
- apparent KD of MS2 coat protein [1]: 0.131 µM
- apparent KD of MS2 coat protein (input ligand: none): 0.147 µM

Sequence: GCGCUCCAAGGAGCUGCGACAUGAGGAUCACCCAUGUAAUCACAGGAUAUGCGAUUCCGAAUUUUGCAGAAGGGUGAUAAGAAC [Asorila] (Eterna round: R96, puzzle: Same State NG 3)
- apparent KD of MS2 coat protein (input ligand: FMN 200 uM): 0.482 µM
- apparent KD of MS2 coat protein [1]: 0.491 µM
- apparent KD of MS2 coat protein (input ligand: none): 0.241 µM

Sequence: GCGGAAACUCACAUGAGGAUCACCCAUGUUCCGGAAACGGCACAGGAUAUCUGUCCGAAAAGGUCAGAGAAGGGUGUAAUCCGC [Fiskers NG3ss - 90] (Eterna round: R96, puzzle: Same State NG 3)
- apparent KD of MS2 coat protein (input ligand: FMN 200 uM): 0.572 µM
- apparent KD of MS2 coat protein [1]: 0.101 µM
- apparent KD of MS2 coat protein (input ligand: none): 0.0796 µM

Sequence: GCGGAACAUGAGGAUCACCCAUGUGGAGGGUGUAAAGGAUAUUAUAGAGAGAAGGUAGGGUAAGAAGGUUGCUUGG [JR_SS1_Sub089] (puzzle: Same State 1)
- apparent KD of MS2 coat protein (Eterna round: R95, input ligand: FMN 200 uM): 0.202 µM
- apparent KD of MS2 coat protein (Eterna round: R95, input ligand: microRNA oligo, concentration not stated): 0.096 µM
- apparent KD of MS2 coat protein (Eterna round: R95, input ligand: none): 0.541 µM

Sequence: GCGGACUUCACAUGAGGAUCACCCAUGUUGCGGAGACGCAAUGAGGAUAUCGAUGGGUUUCCCGUCGAGAAGGCAUAAAUCCGC [JL SSNG3 3.93 mod 5] (Eterna round: R96, puzzle: Same State NG 3)
- apparent KD of MS2 coat protein (input ligand: FMN 200 uM): 0.0252 µM
- apparent KD of MS2 coat protein [1]: 0.03 µM
- apparent KD of MS2 coat protein (input ligand: none): 0.0498 µM

Sequence: GCUACCAAAGAAGCCAACAUGAGGAUCACCCAUGUAUGUUGGCAGGAUAUCGUUUGCAAAGCGAACGAGAAGGGCUAAGGUAGC [Mat - Same State NG 3 - JL Mod - D89] (Eterna round: R96, puzzle: Same State NG 3)
- apparent KD of MS2 coat protein (input ligand: FMN 200 uM): 0.197 µM
- apparent KD of MS2 coat protein [1]: 0.116 µM
- apparent KD of MS2 coat protein (input ligand: none): 0.231 µM

Sequence: GCUACCAAAGAAGCCAACAUGAGGAUCACCCAUGUAUGUUGGUAGGAUAUCGAUUGCAAAGCGAUCGAGAAGGGCUAAGGUAGC [Mat - Same State NG 3 - JL Mod - D84] (Eterna round: R96, puzzle: Same State NG 3)
- apparent KD of MS2 coat protein (input ligand: FMN 200 uM): 0.132 µM
- apparent KD of MS2 coat protein [1]: 0.0931 µM
- apparent KD of MS2 coat protein (input ligand: none): 0.0955 µM

Sequence: GCUACCAAAGAAGCCAACAUGAGGAUCACCCAUGUAUGUUGGUAGGAUAUCGUAUGCAAAGCAUACGAGAAGGGCUAAGGUAGC [Mat - Same State NG 3 - JL Mod - D78] (Eterna round: R96, puzzle: Same State NG 3)
- apparent KD of MS2 coat protein [1]: 0.0869 µM

Sequence: GCUACCAAUGAAGCCAACAUGAGGAUCACCCAUGUAUGUUGGUAGGAUAUCGAUUGCAAAGCGAUCGAGAAGGGCUAAGGUAGC [Mat - Same State NG 3 - JL Mod - D82] (Eterna round: R96, puzzle: Same State NG 3)
- apparent KD of MS2 coat protein (input ligand: FMN 200 uM): 0.0519 µM
- apparent KD of MS2 coat protein [1]: 0.0596 µM
- apparent KD of MS2 coat protein (input ligand: none): 0.0545 µM

Sequence: GCUACCAAUGAAGCCAACAUGAGGAUCACCCAUGUAUGUUGGUAGGAUAUCGUUUGCUUUGCAAACGAGAAGGGCUAAGGUAGC [JL SSNG3 1.26] (Eterna round: R96, puzzle: Same State NG 3)
- apparent KD of MS2 coat protein (input ligand: FMN 200 uM): 0.0422 µM
- apparent KD of MS2 coat protein [1]: 0.0392 µM
- apparent KD of MS2 coat protein (input ligand: none): 0.0426 µM

Sequence: GCUAGAAAUAAAGCCAACAUGAGGAUCACCCAUGUAUGUUGGUAGGAUAUCGUUUGCAAAGCAAACGAGAAGGGCUAAACUAGC [Mat - Same State NG 3 - JL Mod - D17] (Eterna round: R96, puzzle: Same State NG 3)
- apparent KD of MS2 coat protein (input ligand: FMN 200 uM): 0.0616 µM
- apparent KD of MS2 coat protein [1]: 0.0688 µM
- apparent KD of MS2 coat protein (input ligand: none): 0.061 µM

Sequence: GCUAGAAAUAAUGCCAACAUGAGGAUCACCCAUGUAUGUUGGCAGGAUAUCGUUUGCAAAGCAAACGAGAAGGGCUAAACUAGC [Mat - Same State NG 3 - JL Mod - D8] (Eterna round: R96, puzzle: Same State NG 3)
- apparent KD of MS2 coat protein (input ligand: FMN 200 uM): 0.236 µM
- apparent KD of MS2 coat protein [1]: 0.237 µM
- apparent KD of MS2 coat protein (input ligand: none): 0.338 µM

Sequence: GCUAGAAUAAAUGCCUACAUGAGGAUCACCCAUGUAUGUAGGCAGGAUAUCGUAUGCAAAGCAUACGAGAAGGGCCUUACUAGC [Mat - Same State NG 3 - JL Mod - D30] (Eterna round: R96, puzzle: Same State NG 3)
- apparent KD of MS2 coat protein (input ligand: FMN 200 uM): 0.0227 µM
- apparent KD of MS2 coat protein [1]: 0.0554 µM
- apparent KD of MS2 coat protein (input ligand: none): 0.0852 µM

Sequence: GCUAGAAUUAAAGCCAACAUGAGGAUCACCCAUGUAUGUUGGUAGGAUAUCGUUUGCUUUGCAAACGAGAAGGGCUAAUCUAGC [JL SSNG3 1.22] (Eterna round: R96, puzzle: Same State NG 3)
- apparent KD of MS2 coat protein (input ligand: FMN 200 uM): 0.0624 µM
- apparent KD of MS2 coat protein [1]: 0.0598 µM
- apparent KD of MS2 coat protein (input ligand: none): 0.0692 µM

Sequence: GCUAGGAUAUGACGAGGAUCACCCGUUAGAAGGAGCGAAAGCUAGGAUAUGACGAGGAUCACCCGUUAGAAGGAGCUGUCCUCU [pwkr ssNG3 DX 2xF5 +2xFMN.11] (Eterna round: R96, puzzle: Same State NG 3)
- apparent KD of MS2 coat protein (input ligand: FMN 200 uM): 0.2 µM
- apparent KD of MS2 coat protein [1]: 0.0801 µM
- apparent KD of MS2 coat protein (input ligand: none): 0.111 µM

Sequence: GCUAGGAUUAAAGCCAACAUGAGGAUCACCCAUGUAUGUUGGUAGGAUAUCGUUUGCUUUGCAAACGAGAAGGGCUAACCUAGC [JL SSNG3 1.23] (Eterna round: R96, puzzle: Same State NG 3)
- apparent KD of MS2 coat protein (input ligand: FMN 200 uM): 0.0706 µM
- apparent KD of MS2 coat protein [1]: 0.0578 µM
- apparent KD of MS2 coat protein (input ligand: none): 0.0621 µM

Sequence: GCUCCAAACACAGGAUAUGGAAUCUGAUUCAUGCGAGUGACAUGAGGAUCACCCAUGUCCGGCAGCCAGAAGGGUGGGAAACAU [Eternabot solution 27] (Eterna round: R96, puzzle: Same State NG 2)
- apparent KD of MS2 coat protein (input ligand: FMN 200 uM): 0.184 µM
- apparent KD of MS2 coat protein [1]: 0.151 µM
- apparent KD of MS2 coat protein (input ligand: none): 0.201 µM

Sequence: GCUCGACGUAUUGUCUACAUGAGGAUCACCCAUGUAGGUGCGGAGGAUAUCUACGUGUUUCAUGUAGAGAAGGUCGUGUCGAGC [SameState NG3 #90] (Eterna round: R96, puzzle: Same State NG 3)
- apparent KD of MS2 coat protein (input ligand: FMN 200 uM): 0.056 µM
- apparent KD of MS2 coat protein [1]: 0.155 µM
- apparent KD of MS2 coat protein (input ligand: none): 0.177 µM

Sequence: GCUCGACGUAUUGUCUACAUGAGGAUCACCCAUGUAGGUGCGGAGGAUAUUUACGUGUCUCAUGUAGAGAAGGCCGUGUCGAGC [SameState NG3 #96] (Eterna round: R96, puzzle: Same State NG 3)
- apparent KD of MS2 coat protein (input ligand: FMN 200 uM): 0.0371 µM
- apparent KD of MS2 coat protein [1]: 0.216 µM
- apparent KD of MS2 coat protein (input ligand: none): 0.329 µM

Sequence: GCUCGACGUAUUGUCUACAUGAGGAUCACCCAUGUAGGUGCGGAGGAUAUUUACGUGUUUCAUGUAGAGAAGGUCGUGUCGAGC [SameState NG3 #94] (Eterna round: R96, puzzle: Same State NG 3)
- apparent KD of MS2 coat protein (input ligand: FMN 200 uM): 0.0278 µM
- apparent KD of MS2 coat protein [1]: 0.166 µM
- apparent KD of MS2 coat protein (input ligand: none): 0.185 µM

Sequence: GCUCGAUGAAAGUCCUACAUGAGGAUCACCCAUGUACGUGGGCAGGAUAUCUACAUGCAGAAUGUAGAGAAGGGCCCGUCGAGC [SameState NG3 #58] (Eterna round: R96, puzzle: Same State NG 3)
- apparent KD of MS2 coat protein (input ligand: FMN 200 uM): 0.0151 µM
- apparent KD of MS2 coat protein [1]: 0.0165 µM
- apparent KD of MS2 coat protein (input ligand: none): 0.0174 µM

Sequence: GCUCGAUGAAAGUCCUACAUGAGGAUCACCCAUGUACGUGGGCAGGAUAUUUACAUGCAGAGUGUAGAGAAGGGCCCAUCGAGC [SameState NG3 #61] (Eterna round: R96, puzzle: Same State NG 3)
- apparent KD of MS2 coat protein (input ligand: FMN 200 uM): 0.0183 µM
- apparent KD of MS2 coat protein [1]: 0.0502 µM
- apparent KD of MS2 coat protein (input ligand: none): 0.0764 µM

Sequence: GCUCGAUGAGCGGUUUACAUGAGGAUCACCCAUGUACGUGGGCAGGAUAUUUACGUGCUUUGUGUAGAGAAGGGCCCAUCGAGC [SameState NG3 #73] (Eterna round: R96, puzzle: Same State NG 3)
- apparent KD of MS2 coat protein (input ligand: FMN 200 uM): 0.0398 µM
- apparent KD of MS2 coat protein [1]: 0.191 µM
- apparent KD of MS2 coat protein (input ligand: none): 0.405 µM

Sequence: GCUCGAUGAGCGUUCUACAUGAGGAUCACCCAUGUUCGUGGGCAGGAUAUUUACGUGCAGAGUGUAGAGAAGGGCCCAUCGAGC [SameState NG3 #67] (Eterna round: R96, puzzle: Same State NG 3)
- apparent KD of MS2 coat protein (input ligand: FMN 200 uM): 1.26 µM
- apparent KD of MS2 coat protein [1]: 0.27 µM
- apparent KD of MS2 coat protein (input ligand: none): 0.196 µM

Sequence: GCUCGAUGAGCGUUUUACAUGAGGAUCACCCAUGUACGUGGGCAGGAUAUUUACGUGCGGUGUGUAGAGAAGGGCCCAUCGAGC [SameState NG3 #70] (Eterna round: R96, puzzle: Same State NG 3)
- apparent KD of MS2 coat protein (input ligand: FMN 200 uM): 0.0483 µM
- apparent KD of MS2 coat protein [1]: 0.243 µM
- apparent KD of MS2 coat protein (input ligand: none): 0.279 µM
